Experimental data from the Human Domainome abundance scans (Beltran et al. 2025).
± gives the uncertainty stated by the source.

B1: Integrator complex subunit 12, residues 155 to 213; numbered along this chain, Q96CB8 (parent)
chain: AMEMGLACVVCRQMMVASGNQLVECQECHNLYHRDCHKPQVTDKEANDPRLVWYCARCT

Variants of: B1
Test: abundance fitness (aPCA) (normalised: wild type 0, dead -1); higher = more abundant; growth selection in yeast, the domain comes from the species named
Details: Homo sapiens

Variant | abundance fitness
AMEMGLACVVCRQYMVASGNQLVECQECHNLYHRDCHKPQVTDKEANDPRLVWYCARCT | 0.019 ± 0.036
AMEMGLACVVCRQRMVASGNQLVECQECHNLYHRDCHKPQVTDKEANDPRLVWYCARCT | 0.067 ± 0.046
AMEMGLACVVCRQQMVASGNQLVECQECHNLYHRDCHKPQVTDKEANDPRLVWYCARCT | 0.082 ± 0.28
AMEMGLACVVCRQEMVASGNQLVECQECHNLYHRDCHKPQVTDKEANDPRLVWYCARCT | 0.042 ± 0.059
AMEMGLACVVCRQDMVASGNQLVECQECHNLYHRDCHKPQVTDKEANDPRLVWYCARCT | 0.101 ± 0.037
AMEMGLACVVCRQTMVASGNQLVECQECHNLYHRDCHKPQVTDKEANDPRLVWYCARCT | 0.016 ± 0.064
AMEMGLACVVCRQGMVASGNQLVECQECHNLYHRDCHKPQVTDKEANDPRLVWYCARCT | 0.115 ± 0.033
AMEMGLACVVCRQPMVASGNQLVECQECHNLYHRDCHKPQVTDKEANDPRLVWYCARCT | -0.007 ± 0.14
AMEMGLACVVCRQAMVASGNQLVECQECHNLYHRDCHKPQVTDKEANDPRLVWYCARCT | 0.06 ± 0.043
AMEMGLACVVCRQIMVASGNQLVECQECHNLYHRDCHKPQVTDKEANDPRLVWYCARCT | 0.028 ± 0.042
AMEMGLACVVCRQKMVASGNQLVECQECHNLYHRDCHKPQVTDKEANDPRLVWYCARCT | 0.085 ± 0.055
AMEMGLACVVCRQHMVASGNQLVECQECHNLYHRDCHKPQVTDKEANDPRLVWYCARCT | -0.02 ± 0.11
AMEMGLACVVCRQNMVASGNQLVECQECHNLYHRDCHKPQVTDKEANDPRLVWYCARCT | 0.031 ± 0.036
AMEMGLACVVCRQSMVASGNQLVECQECHNLYHRDCHKPQVTDKEANDPRLVWYCARCT | 0.073 ± 0.032
AMEMGLACVVCRQVMVASGNQLVECQECHNLYHRDCHKPQVTDKEANDPRLVWYCARCT | 0.06 ± 0.035
AMEMGLACVVCFQMMVASGNQLVECQECHNLYHRDCHKPQVTDKEANDPRLVWYCARCT | -0.226 ± 0.034
AMEMGLACVVCSQMMVASGNQLVECQECHNLYHRDCHKPQVTDKEANDPRLVWYCARCT | 0.055 ± 0.031
AMEMGLACVVCEQMMVASGNQLVECQECHNLYHRDCHKPQVTDKEANDPRLVWYCARCT | 0.007 ± 0.067
AMEMGLACVVCDQMMVASGNQLVECQECHNLYHRDCHKPQVTDKEANDPRLVWYCARCT | 0.038 ± 0.041
AMEMGLACVVCKQMMVASGNQLVECQECHNLYHRDCHKPQVTDKEANDPRLVWYCARCT | 0.052 ± 0.053
AMEMGLACVVCLQMMVASGNQLVECQECHNLYHRDCHKPQVTDKEANDPRLVWYCARCT | -0.101 ± 0.035
AMEMGLACVVCQQMMVASGNQLVECQECHNLYHRDCHKPQVTDKEANDPRLVWYCARCT | 0.047 ± 0.068
AMEMGLACVVCWQMMVASGNQLVECQECHNLYHRDCHKPQVTDKEANDPRLVWYCARCT | -0.405 ± 0.066

Variant | abundance fitness
AMEMGLACVVCCQMMVASGNQLVECQECHNLYHRDCHKPQVTDKEANDPRLVWYCARCT | -0.069 ± 0.039
AMEMGLACVVCVQMMVASGNQLVECQECHNLYHRDCHKPQVTDKEANDPRLVWYCARCT | -0.463 ± 0.041
AMEMGLACVVCGQMMVASGNQLVECQECHNLYHRDCHKPQVTDKEANDPRLVWYCARCT | 0.028 ± 0.037
AMEMGLACVVCMQMMVASGNQLVECQECHNLYHRDCHKPQVTDKEANDPRLVWYCARCT | -0.081 ± 0.056
AMEMGLACVVCNQMMVASGNQLVECQECHNLYHRDCHKPQVTDKEANDPRLVWYCARCT | 0.002 ± 0.034
AMEMGLACVVCTQMMVASGNQLVECQECHNLYHRDCHKPQVTDKEANDPRLVWYCARCT | -0.049 ± 0.041
AMEMGLACVVCIQMMVASGNQLVECQECHNLYHRDCHKPQVTDKEANDPRLVWYCARCT | -0.74 ± 0.044
AMEMGLACVVCPQMMVASGNQLVECQECHNLYHRDCHKPQVTDKEANDPRLVWYCARCT | -0.546 ± 0.049
AMEMGLACVVYRQMMVASGNQLVECQECHNLYHRDCHKPQVTDKEANDPRLVWYCARCT | -1 ± 0.05
AMEMGLACVVRRQMMVASGNQLVECQECHNLYHRDCHKPQVTDKEANDPRLVWYCARCT | -0.885 ± 0.061
AMEMGLACVVARQMMVASGNQLVECQECHNLYHRDCHKPQVTDKEANDPRLVWYCARCT | -0.937 ± 0.078
AMEMGLACVVQRQMMVASGNQLVECQECHNLYHRDCHKPQVTDKEANDPRLVWYCARCT | -1 ± 0.1
AMEMGLACVVWRQMMVASGNQLVECQECHNLYHRDCHKPQVTDKEANDPRLVWYCARCT | -0.958 ± 0.12
AMEMGLACVVFRQMMVASGNQLVECQECHNLYHRDCHKPQVTDKEANDPRLVWYCARCT | -0.898 ± 0.046
AMEMGLACVVIRQMMVASGNQLVECQECHNLYHRDCHKPQVTDKEANDPRLVWYCARCT | -0.856 ± 0.049
AMEMGLACVVNRQMMVASGNQLVECQECHNLYHRDCHKPQVTDKEANDPRLVWYCARCT | -0.673 ± 0.04
AMEMGLACVVERQMMVASGNQLVECQECHNLYHRDCHKPQVTDKEANDPRLVWYCARCT | -0.782 ± 0.13
AMEMGLACVVDRQMMVASGNQLVECQECHNLYHRDCHKPQVTDKEANDPRLVWYCARCT | -0.818 ± 0.064
AMEMGLACVVKRQMMVASGNQLVECQECHNLYHRDCHKPQVTDKEANDPRLVWYCARCT | -0.761 ± 0.092
AMEMGLACVVMRQMMVASGNQLVECQECHNLYHRDCHKPQVTDKEANDPRLVWYCARCT | -1.07 ± 0.14
AMEMGLACVVHRQMMVASGNQLVECQECHNLYHRDCHKPQVTDKEANDPRLVWYCARCT | -0.839 ± 0.055
AMEMGLACVVSRQMMVASGNQLVECQECHNLYHRDCHKPQVTDKEANDPRLVWYCARCT | -0.877 ± 0.046
